Laboratory results reported in the nanobody polyreactivity screen of Harvey et al. (2022).

assay: yeast display, Sf9 membrane polyspecificity reagent, FACS + sequencing; frameworks hold sequencing errors
In short: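 Nanobodies from a synthetic yeast display library (Saccharomyces cerevisiae BJ5465), induced 36–48 hours with galactose, were stained 1 hour at 4 °C with 10% biotinylated, detergent-solubilized Sf9 membrane reagent, enriched on streptavidin microbeads, then FACS-sorted. Anti-HA (expression) and streptavidin (reagent binding) fluorescence set low and high (top ~1%) gates. Polyreactivity labels come from the gate of origin. Genes were colony-PCR amplified, MiSeq 2 × 250 sequenced and filtered by CDR length.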

| Sequence | polyreactivity (PSR sort gate) |
| --- | --- |
| QVHLVESGGGLVQAGGSLRLSCAASGIIFRRYAMGWYRQAPGKERELVAAISSRGGSTYYADSVKRRFTISRDNAKNTVYLQMNSLKPEDTAVYYCAKGFSGTGGSGDFGYWGQGTQVTVSS | high polyreactivity |
| QVQLVESGGGLVQAGGSLRLICAASGSTFGPNAMGWYRQAPGKEREFVASISWRGGRTYYADSVKGRFTISRDNAKNSVYLQMYCLKPEDTAVSYCAAVSYPAVYGFDYWGQGTQVTVSS | high polyreactivity |
| QVQLVESGGGLVQAGGSLRLSCAASGRIFVYYAMGWYRQAPGKERELVAAITSRDDSTYYADSVKGRFTISRDNAKNTVYLQMNSLKPEDTAVYYCNVVPKSRDWQSYGSWGQGTQVTVSS | high polyreactivity |
| QVQLVESGGGLVQAGGSLRLSCAPSGRIIRKNAMGWSRQAPGKERELVAAITSVGSTYYADSVKGRFTISRDNAMNTVYLQMNSLKPEDTAVYYCNALQWSYNRGGYWGQGTQVTVSS | high polyreactivity |
| QVQLVESGGGLVQAGGSLRLSCAASGYTLGDYSMGWYRQAPGKERELVAVITRNGGRTYYSDSVKGRFTISRDKAKNTVYLQMNSLKPEDTAVYYCNRDTSIRHYNYWGQGTQVTVSS | high polyreactivity |
| QVQLVESGGGLVQAGGSLRLSCAASGSIFGGYAMGWYRQAPGKERELVAAISSGGSTYYADSVKGRFTISRDNAKNTVYLQMKSLKPEDTAVYYCATSTYAYRRNSYYYTRPRFGYWGQGTQVTVSS | high polyreactivity |
| QVQLVESGGGLVQAGGSLRLSCAASGLTFLWYAMGWYRQAPGKERELVAAITSGGRTKYADSVKGRFTISRDNAKNTVYLQMNSLKPEDTAVYYCAAYTQWWVYDYWGQGTQVTVSS | high polyreactivity |
| QVQLVESGGGLVQAGGSLRLSCAASGRTFTWYAMGWYRQAPGKERELVAVISRGGSTNYADSVKGRFTISRDNAKNTVYLQMKSLKPEDTAVYYCAARGLYRARLKLDYWGQGTQVTVSS | high polyreactivity |
| QVQLVESGGGLVQAGGSLRLSCGASGIIFASNGMGWYRQAPGKERELVAAISSGGSTNYADSVKGRFTISRDNAKNTVYLQMNSLKPEDTSVYYCAADRWYREYDYWGQATQVTVSS | low polyreactivity |
| QVQLVESGGGLVQAGGSLRLSCAASVRIFYGYTMGWYRQAPGKERELVASIDYSTGRTYYADSVKGRFTISRDNAKNTVYLLMNSLKPEDTAVYYCNADPNYSFLRYDYWGQGTQVTVSS | high polyreactivity |
| QVQLVESGGGLVQAGGSLRLSCAASGSTFAINAMGWYRQAPGKERELVAAITSGGGTNYADSVKGRFTISRDNAKNTVFLQMISLKPEDTAVYYCYGRVYWYYPMDYWGQGTQVTVSS | low polyreactivity |
| QVQLVESGGGLVQAGGSLRLSCAASGFTFSPNAMGGYRQAPGKERELVAAISKRGASTYYADSVKGRFTISRDNAKNTVYLQMNSLKPEDTAVYYCNVGASARKPYDYWGQGTQVTVSS | high polyreactivity |
| QVQLVESGGGLVQAGGSLRLSCAASGLIFISYAMGWYRQAPGKERELVAAITRSAGTTYYADSVKGRFTISRDNAKNTVYLQMNSLKPEDTAVYYCNALYPITPEDYWGQGTQVTVSS | low polyreactivity |
| QVQLVESGGGLVQAGGSLRLSCAASGSIFNQYAMGWHRQAPGKERELVAAISSSGGSTYYADSVKGRFTISRDNAKNTVYLQMNSLKPEDTAVYYCAARPSGRGYYLLGYWGQGTQVTVSS | low polyreactivity |
| QVQLVETGGGLVQAGGILRLSCAASGLTIIYYAMGWYRQSPGKERELVAAISGSVGSTYYADSVQGRFTISRDNAKNTVYLQMNSLKPEDTAVYYCNADRWGFGNVRKYDYWGQGTQVTVSS | low polyreactivity |
| QVQLVESGGGLVQAGGSLRLSCAASGSTFRTNAMGWYRQAPGKERELVAAISGNGGSTYYADSVKGRFTISRDNAKYNVYLQMNSLKAEDTAVYYCAARRGYRYYPPFGYWGQGTQVTVSS | high polyreactivity |
| QVQLVESGGGLVQAGGSLRLSCAASGIIFPGYAMGLYRQAPGKERELVAAISRSGASTYYADSVKGRFTISRDNAKNTVYLQMNSLKPEDTEVYYCAAEWYLGGEYRRYDYWGQGTQVTVSS | high polyreactivity |
| QVQLVESGGGLVQAGGSLRLSCAASGFTFRRNAMGWYRQAPGKERELVAAISSGGGTYYADSVKGRFTISRDNAKNTLYLQMNSLKPEETAVYYCNAAGQVRKYGYWGQGTEVTVSS | high polyreactivity |
| QVQLVESGGGLVQAGGSLRLSCAASGSTFATNTMGWYRQAPGKERELVARITSSDGSTTYADSVKGRFTISRDNAKNTDYLQMNSLKPEDTAVYYCAAAYGRRWGYDYWGQGTQVTVSS | low polyreactivity |
| QVQLVESGGGLVQSGGSLRLSCAASGFIFKLNAMGWYRPAPGKERELVATITRGGDTKYADSVKGRFTISRDNAKNTVYLQMNSLKPEDTAVEYCAARYTPSSYIYRFYNFYGYDYWGQGTQVTVSS | high polyreactivity |
| QVQLVESGGGLVQAGGSLRLSCAASGSTFDQYAMGWYRQAPGKERELVAAISWSGGRTSYAVSVKGRFTISRDTAKNTVYLQMNSLKPEDTAVYYCAADLWFWGFHYPSRMDYWGQGTQVTVSS | high polyreactivity |
| QVHLVESGGGLVQAGGSLRLSCAASGSTFGYYAMGWYRQAPGKERELVAAIRYSGGTTYYADSVKGRFTISRDNAKNTVYLQMNSLKPEDTAVYYCAAVYTSGYYYWGQGTQVTVSS | high polyreactivity |

| Sequence | polyreactivity (PSR sort gate) |
| --- | --- |
| QVQLVESGGGLVQAGGSLRLSCAASGRTFYYNAMGWYRQAPGKERELVATISWRGGNTYYADSVKGRFTISRDNAKNTVYLQMNSLKPEDTAVYYCNARTVGWKALTGKYDYWGQGTQVTVSS | high polyreactivity |
| QVQLVESGGGLFQAGGSLRLTCAASGSTFPYHTMGWYRQATGKQRDFVAAITGDGGTTYYADSVKGRFTISRDNAKNTVYLQMNSLKPEDTAVYYCNALYAPYGWFYCLYDYWGPGTQVTVSS | low polyreactivity |
| QVQLEESGGGLVQAGGSLRLSCAASGLIFGHNAMGWYRQAPGKERELVAAISRSGTSTYYADSVKGRFTISRDNAKNTVYLQMNSLKPEDNAVYYCAAENYYTAGGSGPIYRRVYWGQGTQVTVSS | low polyreactivity |
| QVQLVESGGGLVQAGGTLRLSCAASGRIFTINAMGWYRQAPGKEREFVAAISGSGGTTYYADSVKGRFTISRDNAMNTVYLQMNSLKPEDTAVYYCAVSQSWYWYYASDYWGQGTQVTVSS | low polyreactivity |
| QVQLVESGGGLVQAGGSLRLSCAASGSTFRYYAMGWYRQAPGKERELVAGITSAGNTYYADSVKGRFTISRDNAKNTVYLQMNSLKPEDTAVYYCAARRWKGYYYWGQGTQVTVSS | high polyreactivity |
| QVQLVESGGGLVQAGGSLRLSCAASGRILVSYAMGWYRQAPGKERELVAAISRSGGSTYYADSVKGRFTISRDNAKNTVYLQMNSLKPEDTAVYYCNVYRFSRYDYWGQGTQVTVSS | high polyreactivity |
| QVQLVESGGGLVQAGGSLRLSCAASGLTSIHYMGWYRQAPGKERELVATITSSTGSTYYADSVKGRFTISRDNAKNTVYLQMNSLKPEDTAVYYCAAESFGADGPYQPSYDYWGQGTQVTVSS | low polyreactivity |
| QVQLVESGGGLVQAGGSLRLSCAASGSTLISYTMGWYRQAPGKERELVAAITSAVTTYYADSVKGRFTISRDNAKNTVYLQMNSLKPEDTAVYYCNTYPFKTLPYRYPRGDYWGQGTQVTVSS | low polyreactivity |
| QVQLVESGGGLVQAGGSLRLSCAASGSIFGFNALGWYRQAPGKERELVAAINNGGSTNYADSVKGRFTISRDNATNTVYLQMNSLKPEDTAVYYCAARLNYIRRGYWGQGTQVTVSS | high polyreactivity |
| QVQLVESGGGLVQAGGSLRLSCAASGIIFKNYAMGWYRQAPGKERELVAAISWRGGRTYYADSVKGRFTISRDNAKNTVYLQMNSLIPEDTAVYYCAKELYVSYRGGPWVDYWGQGTQVTVSS | high polyreactivity |
| QVQLQESGGGLVQAGGSLRPRCAAGGTIFVSVNMGWYRHAPGEELEFVASITQGATTNYADSLIGRFTISRDNAKNTVYLQMNCQNQEDTAVYYCAVHESGGITFTYWGQGTQVTVSS | high polyreactivity |
| QVQRVESGGGLVQAGGSLRLSCAASGSIFRTYAMRWYRQAPGTERELVAAITSRGSSTYYADSVKGRFTISRDNAKNTVYLQMNSLKPEDTAVYSCPADYRTSYKGVLFSMYYWGQGTQVTVSS | high polyreactivity |
| QVQLVESGGGLVQAGGSLRLICAASGRIFWGNAMGWYRQAPGKERELVAAINSIGGTTYYADSVKGRFTISRDNAKNTVYLQMNSLKPEDTAVYYCAAQTFVYRKELLSRYEYWGQGTQVTVSS | high polyreactivity |
| QVQLVESGGGLVQAGGSLRLSCAASGRIFTVNAMGWYRQAPGKERELVAAISKSGGRTYYADSVKGRFTISRDNAKNTVYLQMNSLKPEDTAVYYCAKRVRTGSVGNFNYWGLGTQVTVSS | high polyreactivity |
| QVQLVESVGGLVQAGGSLRLSCAASGFILGYNAMGWYRQAPGKERELVADITFSGGGTNYADSVKGRFTISRDNAKNTVYLQMNSLKPEDTAVYDCNAAAFSQLRVRYDYWGQGTQVTVSS | low polyreactivity |
| QVQLVESGGGLVQAGGSLRLSCAASGRIFRGYGMGWYSQAPGKERVLVAAITSRGGSTYYADSVKGRFTSSRDNAKNTVYLQMNSLKPQDTAVYYCYAVAFYYVGSKTYTRGLDYWGQGTQVTVSS | high polyreactivity |
| QVQLVESGGGLVQAGGSLRLSSADSGRTFRYYAMRWYRPAPGKERELVAAITRGGRTNYADSVKGRFTISRDNAKNTVYLQMNSLKPEDTAVYYCAAVLYTPNKYASYYWGQGTQVTVSS | high polyreactivity |
| QVQLVESGGGLVQAGGSLRLSCAASGSTFPSNAMGWYRQAPGKERELVAAISRSGGSTNYADSVKGRFTISRDNAKNTVYLQMNSLKPVDTAVYYCKADLGRATFYQRVFIERGGYWGQGTQVTVSS | low polyreactivity |
| QVQLVESGGGLVQAGGSLRLSCAASGRIFDIYTMGWYRQAPGKERELVASITKRGGSTYYADSVKGRFTISRDNAKNTVYLQMNSLKPEDTAVYYCNVAGKQKPYYVTTRLDYWGQGTQVTVSS | high polyreactivity |
| QVQLVESGGGLVQAGGSLRVSCAASGFTFYRYAMGWYRQAPGKERELVAAITWSGGSTYYADSVKGRFTISRDNAKNTVYLQMNSLKPEDTAVYYCAADIYDGGFDYWGQGTQVTVSS | low polyreactivity |
| QVQLVESGGGLVQAGGSLRLSCAASGRTFYAYAMGWYRQAPGKERELVASISDRGGSTYYADSVKGRFTISRDNAKNTVYVQMNSLKPEDTAVYYCAAEYRTQRWFGSWGQGTQVTVSS | high polyreactivity |
